Data from article PMC3082182 (The Journal of Cell Biology, 2011).

Target: GST–FL Rngo (Drosophila melanogaster, UniProt Q9VXF9 1-458)
Experiment: pull-down

B1: FL MBP-Rpn10 (natural protein)
chain: MVLESTMICFDNSDFQRNGDYFPTRLIVQRDGINLVCLTKLRSNPENNVGLMTLSNTVEVLATLTSDAGRIFSKMHLVQPKGEINLLTGIRIAHLVLKHRQGKNHKMRIVVFVGSPINHEEGDLVKQAKRLKKEKVNVDIVSFGDHGNNNEILTAFINALNGKDGTGSHLVSVPRGSVLSDALLSSPIIQGEDGMGGAGLGGNVFEFGVDPNEDPELALALRVSMEEQRQRQESEQRRANPDGAPPTGGDAGGGGGVSGSGPGNEESAGAENEANTEEAMLQRALALSTETPEDNLPDFANMTEEEQIAFAMQMSMQDAPDDSVTQQAKRPKTDEANAPMDVDEDYSEVIGDPAFLQSVLENLPGVDPQSEAVRDAVGSLNKDKDKKSDGKDSQKK
binding result: binds
